This note sets out measurements from patent US20150079112A1 (SAMSUNG ELECTRONICS, published 2015).

B2: FLAG-tagged hAng2 (ligand)
chain: YNNFRKSMDSIGKKQYQVQHGSCSYTFLLPEMDNCRSSSSPYVSNAVQRDAPLEYDDSVQRLQVLENIMENNTQWLMKLENYIQDNMKKEMVEIQQNAVQNQTAVMIEIGTNLLNQTAEQTRKLTDVEAQVLNQTTRLELQLLEHSLSTNKLEKQILDQTSEINKLQDKNSFLEKKVLAMEDKHIIQLQSIKEEKDQLQVLVSKQNSIIEELEKKIVTATVNNSVLQKQQHDLMETVNNLLTMMSTSNSAKDPTVAKEEQISFRDCAEVFKSGHTTNGIYTLTFPNSTEEIKAYCDMEAGGGGWTIIQRREDGSVDFQRTWKEYKVGFGNPSGEYWLGNEFVSQLTNQQRYVLKIHLKDWEGNEAYSLYEHFYLSSEELNYRIHLKGLTGTAGKISSISQPGNDFSTKDGDNDKCICKCSQMLTGGWWFDACGPSNLNGMYYPQRQNTNKFNGIKWYYWKGSGYSLKATTMMIRPADF
notes: not shown: FLAG tag

For the test “FLAG-tagged hAng2”, the target named is B2. Nature of the test: competition ELISA: antibody titrated with FLAG-tagged hAng2 (400 ng/ml) on coated hTie2-Fc, bound Ang2 detected with anti-FLAG-HRP; blocked ligand pair Ang2-Tie2. The protocol:
(§1) More specifically, MaxiSorp™ flat-bottom plate (Nunc) of 96-well was coated with hTie2-Fc (R&D Systems) which is a protein bound with 4 ug (microgram)/ml of Fc of human IgG1. After that, the plate was washed five times with 0.05% (v/v) Tween-20-containing PBS (phosphate buffer saline) and then blocked with 1% (v/v) BSA (bovine serum albumin; Sigma)-containing PBS at a room temperature for 2 hour.
For Ang2:Tie2 competition ELISA, each anti-Ang2 antibody obtained in Example 2 was placed at various concentrations of 400 nM to 0.001 nM into each well coated with the hTie-2/Fc fusion protein along with 1% (v/v) BSA and 400 ng/ml of a FLAG-tagged hAng2 and then, the plate was allowed to react at a room temperature for 2 hours and washed five times with PBST. After that, an anti-FLAG antibody (Sigma) conjugated with HRP diluted in 1% (v/v) BSA-containing PBS at a ratio of 1:5,000 (v/v) was added in an amount of 100 ul (microliter) to each well to react at a room temperature for 1 hour and then, the plate was washed five times with PBST. Lastly, 100 ul (microliter) of TMB substrate (Cell Signaling) was added to each well of the plate to induce color development for 3 min. and then, the reaction was ceased by the addition of 100 ul of Stop solution (Cell Signaling) and OD450 values were measured on a plate reader (Molecular Devices). […]
(In general: ELISA stands for enzyme-linked immunosorbent assay.)

Test [1] has as its target T1, hTie2-Fc (R&D Systems) (human, UniProt Q02763 23-745).
T1 construct: also called hTie-2/Fc fusion protein; not shown: Fc of human IgG1
Nature of the test: competition ELISA: FLAG-tagged hAng2 (400 ng/ml) bound to coated hTie2-Fc in the presence of titrated 10D6, detected with anti-FLAG-HRP. Here is the method: as §1
For Ang2:Tie2 competition ELISA, each anti-Ang2 antibody obtained in Example 2 was placed at various concentrations of 400 nM to 0.001 nM into each well coated with the hTie-2/Fc fusion protein along with 1% (v/v) BSA and 400 ng/ml of a FLAG-tagged hAng2 and then, the plate was allowed to react at a room temperature for 2 hours and washed five times with PBST. After that, an anti-FLAG antibody (Sigma) conjugated with HRP diluted in 1% (v/v) BSA-containing PBS at a ratio of 1:5,000 (v/v) was added in an amount of 100 ul (microliter) to each well to react at a room temperature for 1 hour and then, the plate was washed five times with PBST. Lastly, 100 ul (microliter) of TMB substrate (Cell Signaling) was added to each well of the plate to induce color development for 3 min. and then, the reaction was ceased by the addition of 100 ul of Stop solution (Cell Signaling) and OD450 values were measured on a plate reader (Molecular Devices).

The target of test [2] is T1, hTie2-Fc (R&D Systems). Nature of the test: ELISA, coated Tie2-Fc 4 ug/ml, Ang2 0.25 ug/ml and 10D6 2 ug/ml added, anti-mouse IgG-HRP, OD450. Here is the method: A 96-well MaxiSorp™ flat-bottom plate (Nunc) was coated with 4 ug/ml of Tie2-Fc (R&D systems) or BSA (Sigma). Then, the plate was washed five times with 0.05% (v/v) Tween-20-containing PBS (Phosphate Buffer Saline) and blocked with 1% (v/v) BSA (Bovine serum albumin; Sigma)-containing PBS at a room temperature for 2 hours. 0.25 ug/ml of Ang2 and 2 ug/ml of antibody 10D6 were added to each well of the plate, which was allowed to react at a room temperature for 2 hours and then washed five times with PBST. After that, an anti-mouse IgG antibody (Sigma) conjugated with HRP diluted in 1% (v/v) BSA-containing PBS at a ratio of 1:5,000 (v/v) was added in an amount of 100 ul to each well to react at a room temperature for 1 hour and then, the plate was washed five times with PBST. Lastly, 100 ul (microliter) of TMB substrate (Cell Signaling) was added to each well of the plate to induce color development for 3 min. and then, the reaction was ceased by the addition of 100 ul of Stop solution (Cell Signaling) and OD450 values were measured on a plate reader (Molecular Devices).

T1 sequence (Q02763 23-745 limits assumed): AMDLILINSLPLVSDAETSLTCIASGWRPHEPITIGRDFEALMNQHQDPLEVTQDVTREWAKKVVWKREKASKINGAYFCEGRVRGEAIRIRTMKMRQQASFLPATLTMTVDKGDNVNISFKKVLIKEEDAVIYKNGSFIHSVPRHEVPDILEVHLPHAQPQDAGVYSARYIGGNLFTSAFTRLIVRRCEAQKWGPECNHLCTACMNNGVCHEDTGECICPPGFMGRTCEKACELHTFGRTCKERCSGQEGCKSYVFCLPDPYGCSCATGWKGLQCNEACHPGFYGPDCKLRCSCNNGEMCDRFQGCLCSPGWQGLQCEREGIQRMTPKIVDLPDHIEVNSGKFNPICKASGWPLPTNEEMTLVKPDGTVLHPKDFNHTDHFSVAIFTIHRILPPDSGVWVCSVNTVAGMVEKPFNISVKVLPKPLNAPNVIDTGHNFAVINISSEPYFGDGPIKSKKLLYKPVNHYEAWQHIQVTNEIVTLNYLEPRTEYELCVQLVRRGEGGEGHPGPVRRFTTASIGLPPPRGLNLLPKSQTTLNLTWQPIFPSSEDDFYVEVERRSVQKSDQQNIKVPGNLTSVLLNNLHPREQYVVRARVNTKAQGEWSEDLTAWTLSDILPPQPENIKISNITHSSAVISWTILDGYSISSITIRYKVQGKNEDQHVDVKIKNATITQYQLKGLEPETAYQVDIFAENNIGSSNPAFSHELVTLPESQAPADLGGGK

B1: 4H10 (antibody, V domains shown)
VH: EVQLLESGGGLVQPGGSLRLSCAASGFTFSSYDMSWVRQAPGKGLEWVSLISPDSSSIYYADSVKGRFTISRDNSKNTLYLQMNSLRAEDTAVYYCAKDLISFWRGGFDYWGQGTLVTVSS
VL: QSVLTQPPSASGTPGQRVTISCSGSSSNIGSNYVNWYQQLPGTAPKLLIYADSNRPSGVPDRFSGSKSGTSASLAISGLRSEDEADYYCGSWDYSLSGYVFGGGTKLTVLG
notes: also called antibody 4H10
As for B1, the “IC50 (read off the curve)” value with FLAG-tagged hAng2 was approximately 0.2 nM.

Consider B2, for which the binding result with hTie2-Fc (R&D Systems) [1] was “binds”.

B3: Ang2 protein (R&D systems) (ligand)
chain: YNNFRKSMDSIGKKQYQVQHGSCSYTFLLPEMDNCRSSSSPYVSNAVQRDAPLEYDDSVQRLQVLENIMENNTQWLMKLENYIQDNMKKEMVEIQQNAVQNQTAVMIEIGTNLLNQTAEQTRKLTDVEAQVLNQTTRLELQLLEHSLSTNKLEKQILDQTSEINKLQDKNSFLEKKVLAMEDKHIIQLQSIKEEKDQLQVLVSKQNSIIEELEKKIVTATVNNSVLQKQQHDLMETVNNLLTMMSTSNSAKDPTVAKEEQISFRDCAEVFKSGHTTNGIYTLTFPNSTEEIKAYCDMEAGGGGWTIIQRREDGSVDFQRTWKEYKVGFGNPSGEYWLGNEFVSQLTNQQRYVLKIHLKDWEGNEAYSLYEHFYLSSEELNYRIHLKGLTGTAGKISSISQPGNDFSTKDGDNDKCICKCSQMLTGGWWFDACGPSNLNGMYYPQRQNTNKFNGIKWYYWKGSGYSLKATTMMIRPADF
notes: It may be the same product as the C-His hAng2 of the SPR; also called human Ang2 protein (R&D systems; 623-AN-025/CF)
Regarding B3, the binding result with hTie2-Fc (R&D Systems) [2] is listed as “binds”.
